# Laboratory results published in PMC11295463, “Prefoldins are novel regulators of the unfolded protein response in artemisinin resistant Plasmodium falciparum malaria [image fx3.gif]” (The Journal of Biological Chemistry, 2024).
# B1: recombinant PfPFD3 (6x-His-PfPFD3) (natural protein)
# chain: MSFDDLTDNTKSVRNIPGAKFIEHVTEFLQNKNEESILRLARELLLKYKFMEHAFVSRQINTQKKIPELKDALRVVQLLEKRKKIKEKKNLETFFPVEESLYARGIVQKTDKILLWLGANVMVEFPFDEATDLLNQHLERAINLSQEMDNELLWLHEQITTTEINISRIHNYIELKKGMMGKEVDKKTEQVN
# modifications: RED-NHS dye label where it was the labelled protein in MST
# notes: Prefoldin subunit 3 of P. falciparum 3D7, PF3D7_0718500; CDS amplified from Pf3D7 cDNA; Resolved at 24 kDa on SDS-PAGE; Unlabelled when titrated onto labelled PfPFD5; also called rPfPFD3; Prefoldin subunit 3; source: E. coli BL21 (λDE3), pET-28a(+), purified (Ni-NTA)
# B2: recombinant PfPFD6 (6x-His-PfPFD6) (natural protein)
# chain: MSQEKISEIIKDISALKTSCEKLNSQLDELITQKVENEMLLEEVKVLEDDSVLHKLVGLVLVKEEKSKCYDTISRRLQYITGEIENRKKVITNSEEKLRKLFSDLEAHAGQRKIPVPQA
# notes: Prefoldin subunit 6 of P. falciparum 3D7, PF3D7_0512000; CDS amplified from Pf3D7 cDNA; Resolved at 16 kDa on SDS-PAGE; also called rPfPFD6; Prefoldin subunit 6; source: E. coli BL21 (λDE3), pET-28a(+), purified (Ni-NTA)
# How the values were obtained:
# [1] = biological target: T1, PfPFD3 (Prefoldin subunit 3, PF3D7_0718500) (Plasmodium falciparum, UniProt Q8IBR6); test: competitive microscale thermophoresis: labelled PfPFD3-PfPFD1 complex titrated with BPD; assay type: binding
# T1 construct: recombinant 6x-His-PfPFD3 (CDS in pET-28a(+)), RED-NHS labelled; with PfPFD1 (PF3D7_1107500)
# [2] = biological target: B2; test: SPR; AutoLab ESPRIT; recombinant PfK13 (20 μM) immobilised on a gold chip by amine coupling; PfPFD6 injected at 25 nM to 5 μM; PBS; two-state conformational change model, KD by the Integrated Rate Law equation; conditions: both partners purified
# [3] = biological target: T2, recombinant PfPFD5 (6x-His-PfPFD5) (P. falciparum 3D7, UniProt Q8II82 1-248, RED-NHS dye label (labelled protein in MST)); test: MST; Monolith NT.115; PfPFD3 or PfPFD5 labelled with RED-NHS dye, titrated with the other PfPFD subunits; 1× PBS pH 7.5, 0.01% tween-20; 10 min at room temperature; steady-state analysis; conditions: both partners purified
# T2 construct: Prefoldin subunit 5 of P. falciparum 3D7, PF3D7_1128100; CDS amplified from Pf3D7 cDNA; Resolved at 30 kDa on SDS-PAGE; also called rPfPFD5; Prefoldin subunit 5; source: E. coli BL21 (λDE3), pET-28a(+), purified (Ni-NTA)
# T2 sequence: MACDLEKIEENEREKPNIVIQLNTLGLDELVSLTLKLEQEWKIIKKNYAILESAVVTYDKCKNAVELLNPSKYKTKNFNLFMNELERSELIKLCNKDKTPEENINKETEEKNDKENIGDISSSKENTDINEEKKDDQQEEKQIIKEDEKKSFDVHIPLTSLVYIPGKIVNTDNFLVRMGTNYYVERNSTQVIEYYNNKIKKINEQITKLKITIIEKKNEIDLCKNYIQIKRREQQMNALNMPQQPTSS
# [4] = biological target: B1; test: as above; conditions: both partners purified
Molecule,Kd [1],Kd [2],Kd [3],Kd [4]
"OC(CCN1CCCCC1)(c1ccccc1)C1CC2C=CC1C2 (centres unmarked) [BPD, 1-{bicyclo[2.2.1]hept-5-en-2-yl}-1-phenyl-3-(piperidin-1-yl)propan-1-ol]",1990 nM,–,–,–
"recombinant PfK13 (∼43 kDa) (natural protein, Construct limits are not printed. The ~43 kDa band does not fit the full-length 726 aa protein (~83 kDa). It fits the BTB-Kelch propeller region, taken by convention from the BTB domain start at …) TMIDINVGGAIFETSRHTLTQQKDSFIEKLLSGRHHVTRDKQGRIFLDRDSELFRIILNFLRNPLTIPIPKDLSESEALLKEAEFYGIKFLPFPLVFCIGGFDGVEYLNSMELLDISQQCWRMCTPMSTKKAYFGSAVLNNFLYVFGGNNYDYKALFETEVYDRLRDVWYVSSNLNIPRRNNCGVTSNGRIYCIGGYDGSSIIPNVEAYDHRMKAWVEVAPLNTPRSSAMCVAFDNKIYVIGGTNGERLNSIEVYEEKMNKWEQFPYALLEARSSGAAFNYLNQIYVVGGIDNEHNILDSVEQYQPFNKRWQFLNGVPEKKMNFGAATLSDSYIITGGENGEVLNSCHFFSPDTNEWQLGPSLLVPRFGHSVLIANI",–,174 nM,–,–
B1,–,–,1340 nM,–
"recombinant PfPFD1 (6x-His-PfPFD1) (natural protein, Prefoldin subunit 1 of P. falciparum 3D7, PF3D7_1107500; CDS amplified from Pf3D7 cDNA; Resolved at 20 kDa on SDS-PAGE; also called rPfPFD1; Prefoldin subunit 1; source: E. coli BL21 (λDE3), pET-28a(+), purified (Ni-NTA)) MSNLYDILGKAVINKEKKDEFQNLILKSEGFIDDVLHEKLRERQKKRDEILQDLFDMEILIENLKLFVNMKDKSEVETLTSLGCDSYVYADIINKNKIFIQLGYEFYLEMTLEEAIKFLKKKINLYEEKLSYWNKQISHVKAHIQILMRAISNLT",–,–,851 nM,81.6 nM
"recombinant PfPFD2 (6x-His-PfPFD2) (natural protein, Prefoldin subunit 2 of P. falciparum 3D7, PF3D7_1416900; CDS amplified from Pf3D7 cDNA; Resolved at 19 kDa on SDS-PAGE; also called rPfPFD2; Prefoldin subunit 2; source: E. coli BL21 (λDE3), pET-28a(+), purified (Ni-NTA)) METKSNVESPNISEPKESKLTYEQIEKDRVQLVSKIEELYQDVVEHKLVLEALENVPSDRRCYRMVGEVLVERTVGEIKPALMDHKNKVEQVIAECQKQLDQKNNEISNFIKSAKAGNLPGGIINGNPSEDTNNLNDKEKKSDGIIF",–,–,42.4 nM,682 nM
"recombinant PfPFD4 (6x-His-PfPFD4) (natural protein, Prefoldin subunit 4 of P. falciparum 3D7, PF3D7_0904500; CDS amplified from Pf3D7 cDNA; Resolved at 17 kDa on SDS-PAGE; also called rPfPFD4; Prefoldin subunit 4; source: E. coli BL21 (λDE3), pET-28a(+), purified (Ni-NTA)) MGDIKQNKYDLGLDMTVDDQKKIGKFTNLHYKEPLYEHKIKMMKENIMNIDSSIDEVSLAFDSNDIMLNIGDCFFKFDLDYIEEHLEDRKSEELANLNEMELEYKTKLNEKQKLKTELYAKFGNRIDLN",–,–,104 nM,11300 nM
B2,–,–,324 nM,1880 nM
